Assay results as given in patent US20260022175A1 (Chugai, published 2026).

Key:
human CTLA4 [1] = target: T1, human CTLA4 (human); test: SPR Biacore T200, 37C, antibody captured, ATP 10 uM; ATP 10 µM
T1 construct: also called hCTLA4; hCTLA4-His-BAP
Protocol: (§1) Biacore T200 was used to measure the binding of the generated antibodies to human CTLA4. 20 mM ACES (pH 7.4), 150 mM NaCl, 2 mM MgCl₂, 0.05% Tween 20 with ATP added to the desired concentration was used as the running buffer, and the assay was performed at 37° C. First, Protein G (CALBIOCHEM) was immobilized onto a Series S Sensor Chip CM3 (GE Healthcare), and the antibodies were captured by interacting an antibody solution prepared in an ATP-free running buffer with the chip. Next, by interacting with a human CTLA4 solution prepared in a running buffer containing ATP to the desired concentration, or a human CTLA4 solution prepared in a running buffer containing no ATP, the binding ability of the antibody to human CTLA4 in the presence or absence of ATP was evaluated. Chips were regenerated with 25 mM NaOH and 10 mM Glycine-HCl (pH 1.5), and assay was performed by repeatedly capturing antibodies. The dissociation constant of each antibody for CTLA4 was calculated using Biacore T200 Evaluation Software 2.0. Specifically, the binding rate constant ka (L/mol/s) and the dissociation rate constant kd (1/s) were calculated by global fitting of the sensorgrams obtained by the measurement, using a 1:1 Langmuir binding model. The dissociation constant KD (mol/L) was calculated from those values. Alternatively, the dissociation constant KD (mol/L) was calculated by the steady state model. In addition, the binding amount of CTLA4 per unit amount of antibody was calculated by correcting the amount of CTLA4 bound as calculated from the sensorgram obtained by the assay with the amount of antibody captured onto the chip surface.

human CTLA4 [2] = target: T1, human CTLA4; test: SPR Biacore T200, 37C, antibody captured, ATP 100 uM; ATP 100 µM
Protocol: as §1

human CTLA4 [3] = target: T1, human CTLA4; test: SPR Biacore T200, 37C, antibody captured, no ATP; no ATP; binding amount
Protocol: (§2) Next, by interacting with a human CTLA4 solution prepared in a running buffer containing ATP to the desired concentration, or a human CTLA4 solution prepared in a running buffer containing no ATP, the binding ability of the antibody to human CTLA4 in the presence or absence of ATP was evaluated. Chips were regenerated with 25 mM NaOH and 10 mM Glycine-HCl (pH 1.5), and assay was performed by repeatedly capturing antibodies. The dissociation constant of each antibody for CTLA4 was calculated using Biacore T200 Evaluation Software 2.0. Specifically, the binding rate constant ka (L/mol/s) and the dissociation rate constant kd (1/s) were calculated by global fitting of the sensorgrams obtained by the measurement, using a 1:1 Langmuir binding model. The dissociation constant KD (mol/L) was calculated from those values. Alternatively, the dissociation constant KD (mol/L) was calculated by the steady state model. In addition, the binding amount of CTLA4 per unit amount of antibody was calculated by correcting the amount of CTLA4 bound as calculated from the sensorgram obtained by the assay with the amount of antibody captured onto the chip surface.
(§3) First, Sure Protein A (GE Healthcare) was immobilized onto a Series S Sensor Chip CM3 (GE Healthcare), and the antibodies were captured onto the chip by interacting an antibody solution prepared in the running buffer.

human CTLA4 [4] = target: T1, human CTLA4; test: SPR Biacore T200, 37C, antibody captured, ATP 1 uM; ATP 1 µM; binding amount
Protocol: as §2, §3

human CTLA4 [5] = target: T1, human CTLA4; test: SPR Biacore T200, 37C, antibody captured, ATP 10 uM; ATP 10 µM; binding amount
Protocol: as §2, §3

human CTLA4 [6] = target: T1, human CTLA4; test: SPR Biacore T200, 37C, antibody captured, ATP 100 uM; ATP 100 µM; binding amount
Protocol: as §2, §3

[7] = target: hFcγRIIIaV on hFcγRIIIaV-expressing Jurkat cells (human, UniProt P08637 17-254); test: cell-based or functional assay
hFcγRIIIaV on hFcγRIIIaV-expressing Jurkat cells, sequence (P08637 17-254, form in doubt): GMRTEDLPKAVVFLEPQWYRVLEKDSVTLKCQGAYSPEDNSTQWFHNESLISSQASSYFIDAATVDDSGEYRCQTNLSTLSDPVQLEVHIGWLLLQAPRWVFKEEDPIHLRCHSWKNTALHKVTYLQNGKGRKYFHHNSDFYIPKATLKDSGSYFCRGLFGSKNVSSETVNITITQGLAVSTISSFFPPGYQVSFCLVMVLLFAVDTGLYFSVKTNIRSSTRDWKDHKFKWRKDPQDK

[8] = target: T2, hFcγRIIaH on hFcγRIIaH-expressing Jurkat cells (human, UniProt P12318 34-317); test: cell-based or functional assay
T2 sequence (looked up): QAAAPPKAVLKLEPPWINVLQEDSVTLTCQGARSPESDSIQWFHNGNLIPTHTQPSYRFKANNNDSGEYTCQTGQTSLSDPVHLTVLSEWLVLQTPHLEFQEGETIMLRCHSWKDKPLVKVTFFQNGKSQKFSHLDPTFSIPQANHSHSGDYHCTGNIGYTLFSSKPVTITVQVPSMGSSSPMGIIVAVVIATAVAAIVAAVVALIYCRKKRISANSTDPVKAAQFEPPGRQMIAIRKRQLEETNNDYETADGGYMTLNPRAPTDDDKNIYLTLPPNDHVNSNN

[9] = target: T3, human FcγRIa extracellular domain (human, UniProt P12314 16-292); test: SPR Biacore 8K+; KD of G1d divided by KD of this antibody;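 note: antibodies captured on an anti-Fab-kappa streptavidin chip, soluble FcγR ectodomains flowed over, KD by steady-state fit for FcγRIIb and Langmuir kinetic model for the other receptors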
T3 construct: extracellular domain; also called hFcγR Ia; hFcγRIa
T3 sequence (P12314 16-292): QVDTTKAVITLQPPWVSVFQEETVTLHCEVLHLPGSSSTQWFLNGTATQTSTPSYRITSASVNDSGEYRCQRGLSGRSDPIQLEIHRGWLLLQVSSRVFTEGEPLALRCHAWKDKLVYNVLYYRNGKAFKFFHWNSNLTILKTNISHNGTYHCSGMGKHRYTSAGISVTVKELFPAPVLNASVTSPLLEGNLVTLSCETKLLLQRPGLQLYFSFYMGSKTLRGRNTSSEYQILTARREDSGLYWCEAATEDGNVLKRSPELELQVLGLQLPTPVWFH

[10] = target: T4, human FcγRIIa H extracellular domain (human, UniProt P12318 34-217); test: as above
T4 construct: extracellular domain; also called hFcγR IIa H
T4 sequence (looked up): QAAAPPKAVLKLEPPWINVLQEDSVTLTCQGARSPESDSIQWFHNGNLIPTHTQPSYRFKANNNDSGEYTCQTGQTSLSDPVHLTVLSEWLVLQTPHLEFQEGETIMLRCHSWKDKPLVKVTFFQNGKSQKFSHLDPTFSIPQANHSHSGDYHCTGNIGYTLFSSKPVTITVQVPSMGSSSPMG

[11] = target: T5, human FcγRIIa R extracellular domain (human, UniProt P12318 34-217); test: as above
T5 construct: extracellular domain; also called hFcγR IIa R
T5 sequence (looked up): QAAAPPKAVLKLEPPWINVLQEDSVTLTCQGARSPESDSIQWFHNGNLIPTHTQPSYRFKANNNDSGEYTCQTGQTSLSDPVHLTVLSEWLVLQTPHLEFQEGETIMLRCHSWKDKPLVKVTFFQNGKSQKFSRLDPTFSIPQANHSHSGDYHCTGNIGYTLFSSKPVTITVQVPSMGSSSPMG

[12] = target: T6, human FcγRIIb extracellular domain (human, UniProt P31994 43-217); test: as above
T6 construct: extracellular domain; also called hFcγR IIb
T6 sequence (looked up): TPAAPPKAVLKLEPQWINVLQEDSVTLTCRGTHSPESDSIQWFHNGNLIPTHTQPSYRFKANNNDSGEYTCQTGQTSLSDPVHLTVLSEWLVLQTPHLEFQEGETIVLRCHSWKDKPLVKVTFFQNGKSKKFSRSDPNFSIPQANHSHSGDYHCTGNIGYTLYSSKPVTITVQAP

[13] = target: T7, human FcγRIIIa F extracellular domain (human, UniProt P08637 17-208); test: as above
T7 construct: extracellular domain; also called hFcγR IIIa F
T7 sequence (P08637 17-208): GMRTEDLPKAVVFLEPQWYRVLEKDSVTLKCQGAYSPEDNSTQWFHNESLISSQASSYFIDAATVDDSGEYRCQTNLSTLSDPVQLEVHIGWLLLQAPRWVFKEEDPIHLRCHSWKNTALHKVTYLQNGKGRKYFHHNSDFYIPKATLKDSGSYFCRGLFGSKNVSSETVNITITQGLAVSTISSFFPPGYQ

[14] = target: T8, human FcγRIIIa V extracellular domain (human, UniProt P08637 17-208); test: as above
T8 construct: extracellular domain; also called hFcγR IIIa V
T8 sequence (P08637 17-208 F176V limits assumed): as the sequence (P08637 17-208) above, with F160V counted along it

[15] = target: T4, human FcγRIIa H extracellular domain; test: SPR Biacore 8K+; KD for FcγRIIb divided by KD for this FcγR;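 note: antibodies captured on an anti-human Fab kappa SA chip with soluble human FcγR ectodomains flowed over, FcγRIIb KD from steady-state fit, other FcγR KD from Langmuir model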
Protocol: (§4) The interaction between the produced antibodies and human FcγRs was analyzed using Biacore 8K+ by the method below. For the running buffer, 50 mM Na-Phosphate, 150 mM NaCl, and 0.05% Tween20 (pH 7.4) was used, and measurement was performed at 25° C. The sensor chip used was a Series S SA chip (GE Healthcare) onto which CaptureSelect Human Fab-kappa Kinetics Biotin Conjugate (Thermo Fisher Scientific) was immobilized. An antibody of interest was captured onto this chip, and each FcγR diluted with the running buffer was allowed to interact with it. The chip was regenerated using 10 mM Glycine-HCl (pH 1.5), and repeatedly used to capture antibodies and perform measurement. The dissociation constants KD (mol/L) of each antibody for FcγRs were calculated using Biacore Insight Evaluation Software, with a steady state affinity model for the dissociation constant for FcγRIIb and a 1:1 Langmuir binding model for the dissociation constants for the other FcγRs (Table 48).

[16] = target: T5, human FcγRIIa R extracellular domain; test: as above
Protocol: as §4

[17] = target: T7, human FcγRIIIa F extracellular domain; test: as above
Protocol: as §4

[18] = target: T8, human FcγRIIIa V extracellular domain; test: as above
Protocol: as §4

[19] = target: T3, human FcγRIa extracellular domain; test: SPR Biacore 8K+, antibody captured, FcγR as analyte, 1:1 Langmuir model;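 note: antibodies captured on a streptavidin chip through a biotinylated anti-human Fab kappa reagent, with FcγR extracellular domains injected in pH 7.4 phosphate buffer at 25 °C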
Protocol: as §4

[20] = target: T4, human FcγRIIa H extracellular domain; test: as above
Protocol: as §4

[21] = target: T5, human FcγRIIa R extracellular domain; test: as above
Protocol: as §4

[22] = target: T7, human FcγRIIIa F extracellular domain; test: as above
Protocol: as §4

[23] = target: T8, human FcγRIIIa V extracellular domain; test: as above
Protocol: as §4

[24] = target: T6, human FcγRIIb extracellular domain; test: SPR Biacore 8K+, antibody captured, FcγR as analyte, steady state affinity model
[25] = target: T9, human C1q protein (Calbiochem) (human, UniProt P02745 23-245; P02746 28-253; P02747 29-245); test: ELISA: antibody coated on the plate at the varied concentration, hC1q 3 µg/mL added, detected with HRP-conjugated anti-hC1q antibody, O.D (450-690nm)
T9 construct: bought; also called hC1q
T9 sequence (P02745 23-245 limits assumed, chain 1 of 3): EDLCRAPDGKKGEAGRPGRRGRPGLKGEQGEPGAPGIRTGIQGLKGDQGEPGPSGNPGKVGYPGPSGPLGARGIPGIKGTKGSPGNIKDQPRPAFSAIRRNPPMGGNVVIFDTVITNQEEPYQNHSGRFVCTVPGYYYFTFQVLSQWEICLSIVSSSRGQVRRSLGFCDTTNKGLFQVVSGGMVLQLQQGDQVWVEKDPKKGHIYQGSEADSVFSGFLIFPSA
T9 sequence (P02746 28-253 limits assumed, chain 2 of 3): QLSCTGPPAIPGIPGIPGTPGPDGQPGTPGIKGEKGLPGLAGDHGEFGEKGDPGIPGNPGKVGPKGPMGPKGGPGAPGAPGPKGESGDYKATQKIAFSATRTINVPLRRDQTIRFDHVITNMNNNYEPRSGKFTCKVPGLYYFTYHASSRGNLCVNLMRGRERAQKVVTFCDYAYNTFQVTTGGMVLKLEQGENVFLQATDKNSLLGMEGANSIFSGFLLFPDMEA
T9 sequence (P02747 29-245 limits assumed, chain 3 of 3): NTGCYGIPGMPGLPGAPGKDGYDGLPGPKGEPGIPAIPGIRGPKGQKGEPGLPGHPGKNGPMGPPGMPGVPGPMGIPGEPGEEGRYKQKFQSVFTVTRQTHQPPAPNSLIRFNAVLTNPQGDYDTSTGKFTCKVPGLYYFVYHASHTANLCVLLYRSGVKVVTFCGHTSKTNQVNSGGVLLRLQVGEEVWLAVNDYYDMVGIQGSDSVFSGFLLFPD
Protocol: The antigen used was a human C1q protein (hC1q).
First, a 96-well maxisorp plate (Thermo fisher) was coated at 4° C. overnight with 50 μL of solutions containing each antibody prepared at 30, 10, 3, 1, 0.3, 0.1, and 0.03 μg/mL in PBS. Each well of the plate was washed with Wash buffer to remove the antibody not bound to the plate, and then the wells were blocked with 200 μL of Blocking/dilution Buffer at room temperature for 2 hours or longer. After the Blocking/dilution Buffer was removed from each well, hC1q (Calbiochem) prepared such that the final concentration was 3 μg/mL in Blocking/dilution Buffer was added at 50 μL per well. The plate was then allowed to stand at room temperature for 1 hour to allow hC1q to bind to the antibody within each well. After washing with Wash Buffer, 50 μL of an HRP-conjugated anti-hC1q antibody (AbDSerotec) diluted with Blocking/dilution Buffer was added to each well, and the plate was incubated while standing for 1 hour. After washing with Wash Buffer, TMB single solution (Invitrogen) was added. The color development reaction of the solution in each well was stopped by addition of Stop Buffer, and then the developed color was measured by absorbance at 450 nm and 690 nm.

T1 sequence (chain, as listed by the source limits assumed): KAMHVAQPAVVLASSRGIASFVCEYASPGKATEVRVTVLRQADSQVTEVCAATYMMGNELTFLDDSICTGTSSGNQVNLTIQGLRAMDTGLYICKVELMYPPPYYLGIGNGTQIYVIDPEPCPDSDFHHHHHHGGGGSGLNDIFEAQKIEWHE

B1: 04H1207-G1m/04L1086-lam1 (antibody, human IgG1, lambda, V domains shown)
VH: EVQLVESGGGLVKPGGSLRLSCAASGFTFSSKTMNWVRQAPGKGLEWVSSISTRSGYIYYAESVKGRFTISRDNAKNSLYLQMNSLRAEDTAVYYCARYGKREDMLWVFDYWGQGTLVTVSS
VL: QSALTQPPSASGSPGQTVTISCDGPSTGVGDYNYVHWYQQHPGKAPKLMIYFTSKKPSGVPDRFSGSKSGNTASLTVSGLQAEDEADYFCQTYAAPLGPMFGGGTKLTVLG
notes: Human IgG1 constant region G1m (C-terminal Gly and Lys removed), human lambda chain lam1
Kd (human CTLA4 [1]): 400 nM | Kd (human CTLA4 [2]): 76 nM | Binding to Human CTLA4 (binding amount per unit amount of antibody) (human CTLA4 [3]): 0.01 | Binding to Human CTLA4 (binding amount per unit amount of antibody) (human CTLA4 [4]): 0.037 | Binding to Human CTLA4 (binding amount per unit amount of antibody) (human CTLA4 [5]): 0.111 | Binding to Human CTLA4 (binding amount per unit amount of antibody) (human CTLA4 [6]): 0.166

B2: 04H1382-G1m/04L1086-lam1 (antibody, human IgG1, lambda, V domains shown)
VH: EVQLVESGGGLVKPGGSLRLSCAASGFTFSSKTMNWVRQAPGKGLEWVSSISTQSHYIYYARSVKGRFTISRDNAKNSLYLQMNSLRAEDTAVYYCARYGKREDMLWVFDYWGQGTLVTVSS
VL: QSALTQPPSASGSPGQTVTISCDGPSTGVGDYNYVHWYQQHPGKAPKLMIYFTSKKPSGVPDRFSGSKSGNTASLTVSGLQAEDEADYFCQTYAAPLGPMFGGGTKLTVLG
Kd (human CTLA4 [1]): 46 nM | Kd (human CTLA4 [2]): 14 nM | Binding to Human CTLA4 (binding amount per unit amount of antibody) (human CTLA4 [3]): 0.008 | Binding to Human CTLA4 (binding amount per unit amount of antibody) (human CTLA4 [4]): 0.09 | Binding to Human CTLA4 (binding amount per unit amount of antibody) (human CTLA4 [5]): 0.152 | Binding to Human CTLA4 (binding amount per unit amount of antibody) (human CTLA4 [6]): 0.159

B3: 04H1208-G1m/04L1086-lam1 (antibody, human IgG1, lambda, V domains shown)
VH: EVQLVESGGGLVKPGGSLRLSCAASGFTFSSKTMNWVRQAPGKGLEWVSSISTRSGYIYYARSVKGRFTISRDNAKNSLYLQMNSLRAEDTAVYYCARYGKREDMLWVFDYWGQGTLVTVSS
VL: QSALTQPPSASGSPGQTVTISCDGPSTGVGDYNYVHWYQQHPGKAPKLMIYFTSKKPSGVPDRFSGSKSGNTASLTVSGLQAEDEADYFCQTYAAPLGPMFGGGTKLTVLG
Kd (human CTLA4 [1]): 510 nM | Kd (human CTLA4 [2]): 91 nM | Binding to Human CTLA4 (binding amount per unit amount of antibody) (human CTLA4 [3]): 0.003 | Binding to Human CTLA4 (binding amount per unit amount of antibody) (human CTLA4 [4]): 0.022 | Binding to Human CTLA4 (binding amount per unit amount of antibody) (human CTLA4 [5]): 0.084 | Binding to Human CTLA4 (binding amount per unit amount of antibody) (human CTLA4 [6]): 0.139

B4: H240-GASDALIE/L73-k0 (antibody, human IgG1, kappa)
heavy: QDQLVQSGAEVKKPGASVKVSCKASGFNIKDTYIQWVRQAPGQGLEWMGRIDPLRKQTKYREKFEGRVTITADTSTNTAYMELSSLRSEDTAVYYCVRSGREFDYWGQGTLVTVSSASTKGPSVFPLAPSSKSTSGGTAALGCLVKDYFPEPVTVSWNSGALTSGVHTFPAVLQSSGLYSLSSVVTVPSSSLGTQTYICNVNHKPSNTKVDKKVEPKSCDKTHTCPPCPAPELLAGPDVFLFPPKPKDTLMISRTPEVTCVVVDVSHEDPEVKFNWYVDGVEVHNAKTKPREEQYNSTYRVVSVLTVLHQDWLNGKEYKCKVSNKALPLPEEKTISKAKGQPREPQVYTLPPSRDELTKNQVSLTCLVKGFYPSDIAVEWESNGQPENNYKTTPPVLDSDGSFFLYSKLTVDKSRWQQGNVFSCSVMHEALHNHYTQKSLSLSP
light: DIQMTQSPSSLSASVGDRVTITCRASQDIHKYIAWYQQKPGQAPRLLIQYTSTLQPGVPSRFSGSGSGTDYTFTISSLQPEDIATYYCLQYEQLRTFGGGTKVEIKRTVAAPSVFIFPPSDEQLKSGTASVVCLLNNFYPREAKVQWKVDNALQSGNSQESVTEQDSKDSTYSLSSTLTLSKADYEKHKVYACEVTHQGLSSPVTKSFNRGEC
EC50 value (hFcγRIIIaV ADCC Reporter Bioassay, Hepa1-6/hEREG target cells) [7]: 2.08 ng/mL | EC50 value (hFcγRIIaH ADCP Reporter Bioassay, Hepa1-6/hEREG target cells) [8]: 0.0324 µg/mL | Relative value to KD between G1d and hFcgRs [9]: 21.3 | Relative value to KD between G1d and hFcgRs [10]: 6.9 | Relative value to KD between G1d and hFcgRs [11]: 10.3 | Relative value to KD between G1d and hFcgRs [12]: 3.8 | Relative value to KD between G1d and hFcgRs [13]: 99.1 | Relative value to KD between G1d and hFcgRs [14]: 23.6 | A/I ratio (KD for FcγRIIb divided by KD for each FcγR) [15]: 16.5 | A/I ratio (KD for FcγRIIb divided by KD for each FcγR) [16]: 16.5 | A/I ratio (KD for FcγRIIb divided by KD for each FcγR) [17]: 89.3 | A/I ratio (KD for FcγRIIb divided by KD for each FcγR) [18]: 176 | Kd [19]: 4.23 pM | Kd [20]: 162 nM | Kd [21]: 161 nM | Kd [22]: 29.8 nM | Kd [23]: 15.2 nM | Kd [24]: 2670 nM | binding result [25]: no binding (tested: 30 µg/mL)
